# Test results reported in IntAct's records for PubMed 22921829.
# B1: Mothers against decapentaplegic homolog 7 (Homo sapiens), O15105 (parent)
# chain: MFRTKRSALVRRLWRSRAPGGEDEEEGAGGGGGGGELRGEGATDSRAHGAGGGGPGRAGCCLGKAVRGAKGHHHPHPPAAGAGAAGGAEADLKALTHSVLKKLKERQLELLLQAVESRGGTRTACLLLPGRLDCRLGPGAPAGAQPAQPPSSYSLPLLLCKVFRWPDLRHSSEVKRLCCCESYGKINPELVCCNPHHLSRLCELESPPPPYSRYPMDFLKPTADCPDAVPSSAETGGTNYLAPGGLSDSQLLLEPGDRSHWCVVAYWEEKTRVGRLYCVQEPSLDIFYDLPQGNGFCLGQLNSDNKSQLVQKVRSKIGCGIQLTREVDGVWVYNRSSYPIFIKSATLDNPDSRTLLVHKVFPGFSIKAFDYEKAYSLQRPNDHEFMQQPWTGFTVQISFVKGWGQCYTRQFISSCPCWLEVIFNSR
# B2: Mothers against decapentaplegic homolog 3 (Homo sapiens), P84022 (parent)
# chain: MSSILPFTPPIVKRLLGWKKGEQNGQEEKWCEKAVKSLVKKLKKTGQLDELEKAITTQNVNTKCITIPRSLDGRLQVSHRKGLPHVIYCRLWRWPDLHSHHELRAMELCEFAFNMKKDEVCVNPYHYQRVETPVLPPVLVPRHTEIPAEFPPLDDYSHSIPENTNFPAGIEPQSNIPETPPPGYLSEDGETSDHQMNHSMDAGSPNLSPNPMSPAHNNLDLQPVTYCEPAFWCSISYYELNQRVGETFHASQPSMTVDGFTDPSNSERFCLGLLSNVNRNAAVELTRRHIGRGVRLYYIGGEVFAECLSDSAIFVQSPNCNQRYGWHPATVCKIPPGCNLKIFNNQEFAALLAQSVNQGFEAVYQLTRMCTIRMSFVKGWGAEYRRQTVTSTPCWIELHLNGPLQWLDKVLTQMGSPSIRCSSVS
# B3: E3 ubiquitin-protein ligase NEDD4-like (Homo sapiens), Q96PU5-5 (parent)
# chain: MATGLGEPVYGLSEDEGESRILRVKVVSGIDLAKKDIFGASDPYVKLSLYVADENRELALVQTKTIKKTLNPKWNEEFYFRVNPSNHRLLFEVFDENRLTRDDFLGQVDVPLSHLPTEDPTMERPYTFKDFLLRPRSHKSRVKGFLRLKMAYMPKNGGQDEENSDQRDDMEHGWEVVDSNDSASQHQEELPPPPLPPGWEEKVDNLGRTYYVNHNNRTTQWHRPSLMDVSSESDNNIRQINQEAAHRRFRSRRHISEDLEPEPSEGGDVPEPWETISEEVNIAGDSLGLALPPPPASPGSRTSPQELSEELSRRLQITPDSNGEQFSSLIQREPSSRLRSCSVTDAVAEQGHLPPPSVAYVHTTPGLPSGWEERKDAKGRTYYVNHNNRTTTWTRPIMQLAEDGASGSATNSNNHLIEPQIRRPRSLSSPTVTLSAPLEGAKDSPVRRAVKDTLSNPQSPQPSPYNSPKPQHKVTQSFLPPGWEMRIAPNGRPFFIDHNTKTTTWEDPRLKFPVHMRSKTSLNPNDLGPLPPGWEERIHLDGRTFYIDHNSKITQWEDPRLQNPAITGPAVPYSREFKQKYDYFRKKLKKPADIPNRFEMKLHRNNIFEESYRRIMSVKRPDVLKARLWIEFESEKGLDYGGVAREWFFLLSKEMFNPYYGLFEYSATDNYTLQINPNSGLCNEDHLSYFTFIGRVAGLAVFHGKLLDGFFIRPFYKMMLGKQITLNDMESVDSEYYNSLKWILENDPTELDLMFCIDEENFGQTYQVDLKPNGSEIMVTNENKREYIDLVIQWRFVNRVQKQMNAFLEGFTELLPIDLIKIFDENELELLMCGLGDVDVNDWRQHSIYKNGYCPNHPVIQWFWKAVLLMDAEKRIRLLQFVTGTSRVPMNGFAELYGSNGPQLFTIEQWGSPEKLPRAHTCFNRLDLPPYETFEDLREKLLMAVENAQGFEGVD
# B4: E3 ubiquitin-protein ligase SMURF1 (Homo sapiens), Q9HCE7-1 (parent)
# chain: MSNPGTRRNGSSIKIRLTVLCAKNLAKKDFFRLPDPFAKIVVDGSGQCHSTDTVKNTLDPKWNQHYDLYVGKTDSITISVWNHKKIHKKQGAGFLGCVRLLSNAISRLKDTGYQRLDLCKLNPSDTDAVRGQIVVSLQTRDRIGTGGSVVDCRGLLENEGTVYEDSGPGRPLSCFMEEPAPYTDSTGAAAGGGNCRFVESPSQDQRLQAQRLRNPDVRGSLQTPQNRPHGHQSPELPEGYEQRTTVQGQVYFLHTQTGVSTWHDPRIPSPSGTIPGGDAAFLYEFLLQGHTSEPRDLNSVNCDELGPLPPGWEVRSTVSGRIYFVDHNNRTTQFTDPRLHHIMNHQCQLKEPSQPLPLPSEGSLEDEELPAQRYERDLVQKLKVLRHELSLQQPQAGHCRIEVSREEIFEESYRQIMKMRPKDLKKRLMVKFRGEEGLDYGGVAREWLYLLCHEMLNPYYGLFQYSTDNIYMLQINPDSSINPDHLSYFHFVGRIMGLAVFHGHYINGGFTVPFYKQLLGKPIQLSDLESVDPELHKSLVWILENDITPVLDHTFCVEHNAFGRILQHELKPNGRNVPVTEENKKEYVRLYVNWRFMRGIEAQFLALQKGFNELIPQHLLKPFDQKELELIIGGLDKIDLNDWKSNTRLKHCVADSNIVRWFWQAVETFDEERRARLLQFVTGSTRVPLQGFKALQGSTGAAGPRLFTIHLIDANTDNLPKAHTCFNRIDIPPYESYEKLYEKLLTAVEETCGFAVE
# Variants of: B1
# Details: with NEDD4L
row,effect of a mutation on the interaction,Variant
1,disrupting interaction strength,P208A;P209A

# Variants of: B2
# Details: with NEDD4L
row,effect of a mutation on the interaction,Variant
1,disrupting interaction strength,P181A;P182A
2,disrupting interaction strength,T179A

# Variants of: B3
# Details: with smad7_human SMAD7, O15105
row,effect of a mutation on the interaction,Variant
1,decreasing interaction strength,K378E;R380E
2,decreasing interaction strength,R380E
3,decreasing interaction strength,K378E

# Variants of: B4
# Details: with smad7_human SMAD7, O15105
row,effect of a mutation on the interaction,Variant
1,decreasing interaction strength,Q247E;Q249E
2,decreasing interaction strength,R243A
3,decreasing interaction strength,R243E
4,decreasing interaction strength,Q249E
